Values belong to the substance of their own block, whether it stands above or below them.
Assays:
Assay in all cases: AUC
[1] = biological target: Advate (recombinant full-length factor VIII, HC–LC heterodimer) (human) (UniProt P00451)
[2] = biological target: Helixate FS (recombinant full-length factor VIII, HC–LC heterodimer) (human) (UniProt P00451)
[3] = biological target: Kogenate FS (recombinant full-length factor VIII, HC–LC heterodimer) (human) (UniProt P00451)

percent of the A280 signal in the 12–20 S distribution (Lot 2) [1]: 3.8%
percent of the protein-related absorbance signal in the 10.5–10.6 S peak [1]: 7%
stoichiometry N [1]: 2
Substance: Advate (recombinant full-length factor VIII, HC–LC heterodimer) (from UniProt P00451 20-1332; P00451 1668-2351) (complex)

stoichiometry N [2]: 2
Substance: Helixate FS (recombinant full-length factor VIII, HC–LC heterodimer) (from UniProt P00451 20-1332; P00451 1668-2351) (complex)

percent of the protein-related absorbance signal in the 10.5–10.6 S peak [3]: 5%
stoichiometry N [3]: 2
Substance: Kogenate FS (recombinant full-length factor VIII, HC–LC heterodimer) (from UniProt P00451 20-1332; P00451 1668-2351) (complex)

Reference: paper PMC5809250
